B1: exendin-4 peptide analogue SEQ ID NO: 58 (peptide)
peptide: Y[Aib]EGTFTSDLSIQK([γGlu-Stearoyl])ESKAAHEFIEWLKAGGPSSGAPPPSK-NH2
modifications: N-terminus assumed
SMILES: CCCCCCCCCCCCCCCCCC(=O)N[C@@H](CCC(=O)NCCCC[C@H](NC(=O)[C@H](CCC(N)=O)NC(=O)[C@@H](NC(=O)[C@H](CO)NC(=O)[C@H](CC(C)C)NC(=O)[C@H](CC(=O)O)NC(=O)[C@H](CO)NC(=O)[C@@H](NC(=O)[C@H](Cc1ccccc1)NC(=O)[C@@H](NC(=O)CNC(=O)[C@H](CCC(=O)O)NC(=O)C(C)(C)NC(=O)[C@@H](N)Cc1ccc(O)cc1)[C@@H](C)O)[C@@H](C)O)[C@@H](C)CC)C(=O)N[C@@H](CCC(=O)O)C(=O)N[C@@H](CO)C(=O)N[C@@H](CCCCN)C(=O)N[C@@H](C)C(=O)N[C@@H](C)C(=O)N[C@@H](Cc1c[nH]cn1)C(=O)N[C@@H](CCC(=O)O)C(=O)N[C@@H](Cc1ccccc1)C(=O)N[C@H](C(=O)N[C@@H](CCC(=O)O)C(=O)N[C@@H](Cc1c[nH]c2ccccc12)C(=O)N[C@@H](CC(C)C)C(=O)N[C@@H](CCCCN)C(=O)N[C@@H](C)C(=O)NCC(=O)NCC(=O)N1CCC[C@H]1C(=O)N[C@@H](CO)C(=O)N[C@@H](CO)C(=O)NCC(=O)N[C@@H](C)C(=O)N1CCC[C@H]1C(=O)N1CCC[C@H]1C(=O)N1CCC[C@H]1C(=O)N[C@@H](CO)C(=O)N[C@@H](CCCCN)C(N)=O)[C@@H](C)CC)C(=O)O
B2: exendin-4 peptide analogue SEQ ID NO: 55 (peptide)
peptide: Y[Aib]EGTFTSDLSIQK([γGlu-Palmitoyl])DKRAAQLFIEWLKNGGPSSGAPPPS-NH2
modifications: N-terminus assumed
SMILES: CCCCCCCCCCCCCCCC(=O)N[C@@H](CCC(=O)NCCCC[C@H](NC(=O)[C@H](CCC(N)=O)NC(=O)[C@@H](NC(=O)[C@H](CO)NC(=O)[C@H](CC(C)C)NC(=O)[C@H](CC(=O)O)NC(=O)[C@H](CO)NC(=O)[C@@H](NC(=O)[C@H](Cc1ccccc1)NC(=O)[C@@H](NC(=O)CNC(=O)[C@H](CCC(=O)O)NC(=O)C(C)(C)NC(=O)[C@@H](N)Cc1ccc(O)cc1)[C@@H](C)O)[C@@H](C)O)[C@@H](C)CC)C(=O)N[C@@H](CC(=O)O)C(=O)N[C@@H](CCCCN)C(=O)N[C@@H](CCCNC(=N)N)C(=O)N[C@@H](C)C(=O)N[C@@H](C)C(=O)N[C@@H](CCC(N)=O)C(=O)N[C@@H](CC(C)C)C(=O)N[C@@H](Cc1ccccc1)C(=O)N[C@H](C(=O)N[C@@H](CCC(=O)O)C(=O)N[C@@H](Cc1c[nH]c2ccccc12)C(=O)N[C@@H](CC(C)C)C(=O)N[C@@H](CCCCN)C(=O)N[C@@H](CC(N)=O)C(=O)NCC(=O)NCC(=O)N1CCC[C@H]1C(=O)N[C@@H](CO)C(=O)N[C@@H](CO)C(=O)NCC(=O)N[C@@H](C)C(=O)N1CCC[C@H]1C(=O)N1CCC[C@H]1C(=O)N1CCC[C@H]1C(=O)N[C@@H](CO)C(N)=O)[C@@H](C)CC)C(=O)O
B3: exendin-4 peptide analogue SEQ ID NO: 56 (peptide)
peptide: Y[Aib]QGTFTSDLSKQK([γGlu-Palmitoyl])DSRAARDFIEWLKAGGPSSGAPPPS-NH2
modifications: N-terminus assumed
SMILES: CCCCCCCCCCCCCCCC(=O)N[C@@H](CCC(=O)NCCCC[C@H](NC(=O)[C@H](CCC(N)=O)NC(=O)[C@H](CCCCN)NC(=O)[C@H](CO)NC(=O)[C@H](CC(C)C)NC(=O)[C@H](CC(=O)O)NC(=O)[C@H](CO)NC(=O)[C@@H](NC(=O)[C@H](Cc1ccccc1)NC(=O)[C@@H](NC(=O)CNC(=O)[C@H](CCC(N)=O)NC(=O)C(C)(C)NC(=O)[C@@H](N)Cc1ccc(O)cc1)[C@@H](C)O)[C@@H](C)O)C(=O)N[C@@H](CC(=O)O)C(=O)N[C@@H](CO)C(=O)N[C@@H](CCCNC(=N)N)C(=O)N[C@@H](C)C(=O)N[C@@H](C)C(=O)N[C@@H](CCCNC(=N)N)C(=O)N[C@@H](CC(=O)O)C(=O)N[C@@H](Cc1ccccc1)C(=O)N[C@H](C(=O)N[C@@H](CCC(=O)O)C(=O)N[C@@H](Cc1c[nH]c2ccccc12)C(=O)N[C@@H](CC(C)C)C(=O)N[C@@H](CCCCN)C(=O)N[C@@H](C)C(=O)NCC(=O)NCC(=O)N1CCC[C@H]1C(=O)N[C@@H](CO)C(=O)N[C@@H](CO)C(=O)NCC(=O)N[C@@H](C)C(=O)N1CCC[C@H]1C(=O)N1CCC[C@H]1C(=O)N1CCC[C@H]1C(=O)N[C@@H](CO)C(N)=O)[C@@H](C)CC)C(=O)O
B4: exendin-4 peptide analogue SEQ ID NO: 57 (peptide)
peptide: Y[Aib]EGTFTSDLSIQK([γGlu-Palmitoyl])EERAAHEFIEWLKR[Aib]GPSSGAPPPSK-NH2
modifications: N-terminus assumed
SMILES: CCCCCCCCCCCCCCCC(=O)N[C@@H](CCC(=O)NCCCC[C@H](NC(=O)[C@H](CCC(N)=O)NC(=O)[C@@H](NC(=O)[C@H](CO)NC(=O)[C@H](CC(C)C)NC(=O)[C@H](CC(=O)O)NC(=O)[C@H](CO)NC(=O)[C@@H](NC(=O)[C@H](Cc1ccccc1)NC(=O)[C@@H](NC(=O)CNC(=O)[C@H](CCC(=O)O)NC(=O)C(C)(C)NC(=O)[C@@H](N)Cc1ccc(O)cc1)[C@@H](C)O)[C@@H](C)O)[C@@H](C)CC)C(=O)N[C@@H](CCC(=O)O)C(=O)N[C@@H](CCC(=O)O)C(=O)N[C@@H](CCCNC(=N)N)C(=O)N[C@@H](C)C(=O)N[C@@H](C)C(=O)N[C@@H](Cc1c[nH]cn1)C(=O)N[C@@H](CCC(=O)O)C(=O)N[C@@H](Cc1ccccc1)C(=O)N[C@H](C(=O)N[C@@H](CCC(=O)O)C(=O)N[C@@H](Cc1c[nH]c2ccccc12)C(=O)N[C@@H](CC(C)C)C(=O)N[C@@H](CCCCN)C(=O)N[C@@H](CCCNC(=N)N)C(=O)NC(C)(C)C(=O)NCC(=O)N1CCC[C@H]1C(=O)N[C@@H](CO)C(=O)N[C@@H](CO)C(=O)NCC(=O)N[C@@H](C)C(=O)N1CCC[C@H]1C(=O)N1CCC[C@H]1C(=O)N1CCC[C@H]1C(=O)N[C@@H](CO)C(=O)N[C@@H](CCCCN)C(N)=O)[C@@H](C)CC)C(=O)O

*1 amine or outer side, *2 acyl side, *3 side chain or, on linkers, in order; H or OH if unused. Where no end group is shown, it is not given here. Side-chain parts run from the residue outwards. [ ]: non-standard residue; d: D form. The star is where a group is joined. γGlu = O=C(O)[C@H](CCC(=O)[*:2])N[*:1]; Stearoyl = CCCCCCCCCCCCCCCCCC(=O)*; Palmitoyl = CCCCCCCCCCCCCCCC(=O)*; Aib = CC(C)(N)C(=O)O

The first experiment concerns the target human GLP-1 receptor (human, UniProt P43220 24-463). As to the kind of experiment: cell-based or functional assay.
As to B1, the “EC50 hGLP-1 R” value came to 0.0125 nM.

Turning to B2, the “EC50 hGLP-1 R” value was found to be 0.0161 nM.

B3: the “EC50 hGLP-1 R” value worked out at 0.0046 nM.

On to B4, for which the “EC50 hGLP-1 R” value was 0.0071 nM.

In a further experiment the target is T1, human GIP receptor (human, UniProt P48546 22-466).
T1 sequence (looked up): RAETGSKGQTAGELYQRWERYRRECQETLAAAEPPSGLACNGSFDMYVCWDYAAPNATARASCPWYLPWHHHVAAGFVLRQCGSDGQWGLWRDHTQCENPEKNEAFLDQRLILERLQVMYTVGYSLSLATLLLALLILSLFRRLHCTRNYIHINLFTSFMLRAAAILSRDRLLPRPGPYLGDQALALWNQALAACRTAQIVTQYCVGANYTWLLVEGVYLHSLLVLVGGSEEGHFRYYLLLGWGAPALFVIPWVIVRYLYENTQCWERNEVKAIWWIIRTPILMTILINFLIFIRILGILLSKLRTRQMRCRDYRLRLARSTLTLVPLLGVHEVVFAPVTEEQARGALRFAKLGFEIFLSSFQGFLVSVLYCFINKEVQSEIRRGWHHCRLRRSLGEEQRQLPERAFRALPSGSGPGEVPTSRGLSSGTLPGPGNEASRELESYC
As to the kind of experiment: cell-based or functional assay.
Take B1: the “EC50 hGIP R” value stood at 0.0086 nM.

As to B2, the “EC50 hGIP R” value was 0.0156 nM.

In the case of B3, the “EC50 hGIP R” value stood at 0.162 nM.

As to B4, the “EC50 hGIP R” value was 0.0157 nM.

The target in the next experiment is human glucagon receptor (human, UniProt P47871 26-477). As to the kind of experiment: cell-based or functional assay.
Chain of human glucagon receptor (P47871 26-477): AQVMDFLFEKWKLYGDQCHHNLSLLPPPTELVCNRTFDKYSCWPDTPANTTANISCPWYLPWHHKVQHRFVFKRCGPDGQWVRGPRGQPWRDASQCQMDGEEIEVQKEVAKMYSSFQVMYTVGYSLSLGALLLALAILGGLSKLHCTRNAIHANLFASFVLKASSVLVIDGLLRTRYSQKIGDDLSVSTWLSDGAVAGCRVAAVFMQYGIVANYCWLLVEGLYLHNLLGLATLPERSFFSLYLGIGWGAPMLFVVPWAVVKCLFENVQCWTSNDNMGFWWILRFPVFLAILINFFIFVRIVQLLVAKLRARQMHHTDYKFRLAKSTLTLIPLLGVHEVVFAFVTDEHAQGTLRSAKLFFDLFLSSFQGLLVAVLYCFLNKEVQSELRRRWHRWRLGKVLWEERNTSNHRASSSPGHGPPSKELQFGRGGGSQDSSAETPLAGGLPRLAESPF
Take B1: the “EC50 hGLUC R” value came out at 16 nM.

B2: the “EC50 hGLUC R” value came to 18.3 nM.

As for B3, the “EC50 hGLUC R” value was 0.0199 nM.

Consider B4, for which the “EC50 hGLUC R” value was determined as 14.4 nM.
